3 molecules from patent US20220009992A1 (published 2022) can be followed below.

The target in assay [1] is T1, YN010 peptide on HLA-A*02:01 (human).
T1 peptide: VLALWEAEV
In words: cytokine release.

For assay [2], the target named is T2, ULK1 peptide on HLA-A*02:01 (human).
T2 peptide: VLYLKVAEL
In words: cytokine release.

The target in assay [3] is T3, IN80B peptide on HLA-A*02:01 (human).
T3 peptide: MLPLPVAEG
In words: cytokine release.

The target in assay [4] is T4, CEAM3 peptide on HLA-A*02:01 (human).
T4 peptide: SMPLSVAEG
In words: cytokine release.

Assay [5] concerns the target T5, AL1L1 peptide on HLA-A*02:01 (human).
T5 peptide: VLELTEAEL
In words: cytokine release.

The target of assay [6] is T6, OR2J2 peptide on HLA-A*02:01 (human).
T6 peptide: VLALGIAEC
Description: cytokine release.

Assay [7] addresses T7, MLEC peptide on HLA-A*02:01 (human).
T7 peptide: VLVLKFAEV
In words: cytokine release.

Assay [8] addresses T8, ADPRH peptide on HLA-A*02:01 (human).
T8 peptide: VMHLATAEA
In words: cytokine release.

Assay [9] deals with T9, CHPF2 peptide on HLA-A*02:01 (human).
T9 peptide: VLPLIVAEA
In words: cytokine release.

Assay [10] addresses T10, OR2J1 peptide on HLA-A*02:01 (human).
T10 peptide: VLALGTAEC
In words: cytokine release.

Assay [11] addresses T11, EHF (peptide #10) peptide on HLA-A*02:01 (human).
T11 peptide: VLLLSLAEI
Description: cytokine release.

In assay [12] the target is T12, DNHD1 peptide on HLA-A*02:01 (human).
T12 peptide: VLELLLAEL
Description: cytokine release.

The target in assay [13] is T13, GALP peptide on HLA-A*02:01 (human).
T13 peptide: VLLLSLAET
In words: cytokine release.

The target of assay [14] is T14, LRCH3 peptide on HLA-A*02:01 (human).
T14 peptide: DLPLRVAEI
Description: cytokine release.

For assay [15], the target named is T15, CHPF2 peptide on HLA-A*02:01 (human).
T15 peptide: VLPLLVAEA
In words: cytokine release.

For assay [16], the target named is T16, mesothelin (human MSLN, isoform 1, SEQ ID NO:50) peptide on HLA-A*02:01 (human).
T16 peptide: VLPLTVAEV
Description: multimer staining.

Assay [17] concerns the target T17, mesothelin (human MSLN, isoform 1, SEQ ID NO:50) peptide on HLA-A*02:01 (human).
T17 peptide: SLLFLLFSL
Description: multimer staining.

B1: Meso530-11A (TCR, V domains shown)
Valpha: GEDVEQSLFLSVREGDSSVINCTYTDSSSTYLYWYKQEPGAGLQLLTYIFSNMDMKQDQRLTVLLNKKDKHLSLRIADTQTGDSAIYFCAETPGYGGATNKLIFGTGTLLAVQP
Vbeta: DTEVTQTPKHLVMGMTNKKSLKCEQHMGHRAMYWYKQKAKKPPELMFVYSYEKLSINESVPSRFSPECPNSSLLNLHLHALQPEDSALYLCASSHGSLNTEAFFGQGTRLTVV
Take B1: the binding result in assay [1], in [2], in assay [3], in assay [4], in assay [5] and in [6] was “no recognition” in each case. Further, the binding result in [7], in assay [8], in assay [9], in [10], in assay [11] and in assay [12] was “no recognition” throughout. In addition, the binding result is “no recognition” in assay [13], “no recognition” in [14], “no recognition” in [15] and “recognises” in [16].

B2: Meso530-11B (TCR, V domains shown)
Valpha: KQEVTQIPAALSVPEGENLVLNCSFTDSAIYNLQWFRQDPGKGLTSLLLIQSSQREQTSGRLNASLDKSSGRSTLYIAASQPGDSATYLCAVRLLFAQGGSEKLVFGKGTKLTVNP
Vbeta: ETGVTQSPTHLIKTRGQQVTLRCSSQSGHNTVSWYQQALGQGPQFIFQYYREEENGRGNFPPRFSGLQFPNYSSELNVNALELDDSALYLCASSFAGGRSDTQYFGPGTRLTVL
Regarding B2, the binding result in [1], in assay [2], in [3], in assay [4], in [5] and in [6] was “no recognition” each time. The binding result in assay [7], in assay [8], in [9], in assay [10], in assay [12] and in assay [13] was “no recognition” in each case. In addition, the binding result in assay [14] is listed as “no recognition”; in [15], “no recognition”; in assay [16] it was “recognises”.

B3: Meso20-3B (TCR, V domains shown)
Valpha: GQSLEQPSEVTAVEGAIVQINCTYQTSGFYGLSWYQQHDGGAPTFLSYNALDGLEETGRFSSFLSRSDSYGYLLLQELQMKDSASYFCAVNDASKIIFGSGTRLSIRP
Vbeta: DAGVIQSPRHEVTEMGQEVTLRCKPISGHDYLFWYRQTMMRGLELLIYFNNNVPIDDSGMPEDRFSAKMPNASFSTLKIQPSEPRDSAVYFCASSFTSGSYEQYFGPGTRLTVT
With B3, in assay [17], the binding result is given as “recognises”.
